Data published in patent US20190241653A1 (NATIONAL RESEARCH COUNCIL OF CANADA, published 2019).

Columns and labels:
[1] = molecular target: receptor(s) of FC5 on SV-ARBEC cells (SV40-immortalized adult rat brain microvascular endothelial cells) (rat) (UniProt Q6AY41); assay: Mirrorball microplate cytometry on SV-ARBEC cells in suspension, anti-c-myc Alexa 488 detection
[2] = molecular target: T1, receptor(s) of FC5 on HBEC-D3 cells (human microvascular brain endothelial cells) (human, UniProt Q9NV96 2-361); assay: Mirrorball microplate cytometry on HBEC-D3 cells in suspension, anti-c-myc Alexa 488 detection
T1 construct: whole, on cells; The assay used whole, untransfected endothelial cells; also called human brain endothelial cells; TMEM30A
T1 sequence (looked up): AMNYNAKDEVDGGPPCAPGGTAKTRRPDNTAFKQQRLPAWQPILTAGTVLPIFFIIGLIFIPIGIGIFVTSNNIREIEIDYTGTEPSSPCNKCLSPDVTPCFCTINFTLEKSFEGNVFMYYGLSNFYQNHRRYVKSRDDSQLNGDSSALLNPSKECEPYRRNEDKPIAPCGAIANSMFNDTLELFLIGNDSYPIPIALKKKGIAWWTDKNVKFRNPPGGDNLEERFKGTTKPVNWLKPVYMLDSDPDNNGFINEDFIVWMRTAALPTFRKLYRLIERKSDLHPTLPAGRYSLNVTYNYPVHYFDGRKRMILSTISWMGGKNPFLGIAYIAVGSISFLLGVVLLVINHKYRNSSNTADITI
Method: Mirrorball 6 High Sensitivity Microplate Cytometry (TTP Labtech): All buffers and reagents were pre-chilled to 4° C. […] mM EDTA and Mirrorball assay buffer—Live Cell Imaging Solution, LCIB (Invitrogen, 140 mM NaCl, 2.5 mM KCl, 1.8 mM CaCl₂, 1.0 mM MgCl₂, 20 mM Hepes, pH 7.4, mOsm=300). A 20 μl volume of a 1:1 mix of LCIB and 0.5×PBS/2.5 mM EDTA was added to all wells of each 384 well Mirrorball assay plate (Corning 3712); with the exception of row A which received 40 μl of 1000 nM test VHH antibody. Serial dilutions were prepared for each test variant within the Mirrorball 384 well assay plate. A 16-channel Finn pipette (Thermo Scientific) was used to transfer 20 μl of VHH antibody from row A-columns 1-24 into row B-columns 1-24 mixing 8×, then transferring 20 μl of VHH antibody from row B-columns 1-24 into row C-columns 1-24 mixing 8×. Dilutions were repeated until row G-columns 1-24 to create 7 point curve for each VHH antibody variant. A second set of test VHH antibody variants (1000 nM) were added to row I-columns 1-24 and the dilution protocol was repeated until row 0-columns 1-24. Row H-columns 1-24 were reserved on each plate for the reference FC5-H7 VHH single domain antibody. Row P-columns 1-24 received no antibody; this was background control for non-specific binding of the secondary to the cells of interest; thus 48 variants could be tested on each 384 well Mirrorball assay plate. Immortalized adult rat brain microvascular endothelial cells (SV-ARBEC) and/or human microvascular brain endothelial cells (HBEC-D3) were dissociated in Accutase solution (Sigma Aldrich) to generate single cell populations. Cells were washed in LCIB then centrifuged at 200×g, 5 min to pellet. Wash buffer was removed and the cell pellet was re-suspended into 1 mL of LCIB. Cell number was calculated using a Bio-Rad TC20 automated cell counter with Trypan Blue dye to assess viability. The cells were diluted to 350,000 live cells/ml using LCIB. A fluorescent conjugate c-myc Alexa 488 detection antibody (1600 ng/ml, Santa Cruz Biotechnology) supplemented with Draq 5 nuclear stain (2 uM, Cell Signaling) was prepared in LCIB assay buffer.

B1: FC5 VHH (parental camelid single domain antibody) (VHH)
VHH: DVQLQASGGGLVQAGGSLRLSCAASGFKITHYTMGWFRQAPGKEREFVSRITWGGDNTFYSNSVKGRFTISRDNAKNTVYLQMNSLKPEDTADYYCAAGSTSTATPLRVDYWGKGTQVTVSS
notes: Llama-derived VHH expressed in E. coli in fusion with His5 and c-myc tags; also called FC5 camelid; sdAb FC5; not shown: His5 and c-myc tags
B1 was tested, and the SV-ARBEC binding (MMFI at 1.3 µM antibody) [1] was 20.3 MMFI and the “HBEC-D3 binding (MMFI at 1.3 µM antibody)” value (shortened to “HBEC-D3 binding”) [2] was 39.1 MMFI.

B2: FC5-H3 (VHH)
VHH: EVQLVESGGGLVQPGGSLRLSCAASGFKITHYTMGWFRQAPGKGLEFVSRITWGGDNTFYSNSVKGRFTISRDNSKNTVYLQMNSLRAEDTAVYYCAAGSTSTATPLRVDYWGQGTLVTVSS
notes: Humanized variant of FC5, expressed with His5 and c-myc tags; not shown: His5 and c-myc tags
For B2, the SV-ARBEC binding (MMFI at 1.3 µM antibody) [1] was 40.2 MMFI and the “HBEC-D3 binding” value [2] was 43.9 MMFI.

B3: FC5-H7 (VHH)
VHH: EVQLVESGGGLVQPGGSLRLSCAASGFKITHYTMGWFRQAPGKEREFVSRITWGGDNTFYSNSVKGRFTISRDNSKNTLYLQMNSLRAEDTAVYYCAAGSTSTATPLRVDYWGQGTLVTVSS
notes: as for B2
In the case of B3, the SV-ARBEC binding (MMFI at 1.3 µM antibody) [1] is reported as 64.2 MMFI and the “HBEC-D3 binding” value [2] is reported as 72.8 MMFI.

B4: FC5-H1 (VHH)
VHH: EVQLVESGGGLVQPGGSLRLSCAASGFKITHYTMGWVRQAPGKGLEWVSRITWGGDNTFYSNSVKGRFTISRDNSKNTLYLQMNSLRAEDTAVYYCAAGSTSTATPLRVDYWGQGTLVTVSS
notes: as for B2
With B4 the SV-ARBEC binding (MMFI at 1.3 µM antibody) [1] was 27 MMFI and the “HBEC-D3 binding” value [2] was 66.4 MMFI.

B5: FC5-H2 (VHH)
VHH: EVQLVESGGGLVQPGGSLRLSCAASGFKITHYTMGWVRQAPGKGLEWVSRITWGGDNTFYSNSVKGRFTISRDNSKNTVYLQMNSLRAEDTAVYYCAAGSTSTATPLRVDYWGQGTLVTVSS
notes: as for B2
For B5, the SV-ARBEC binding (MMFI at 1.3 µM antibody) [1] was 23.1 MMFI and the “HBEC-D3 binding” value [2] was 31 MMFI.
